How the values were obtained:
Assay in all cases: TOX IP-MS, EL4 nuclear extract, MiST
Pusl1 = Pusl1 (UniProt A2ADA5)
Tox4; Tox3 = target: Tox4; Tox3
Eif5 = Eif5 (UniProt P59325)
Mrpl46 = Mrpl46 (UniProt Q9EQI8)
Ppa1 = Ppa1 (UniProt Q9D819)
Dync1li1 = Dync1li1 (UniProt Q8R1Q8)
Zfp219 = Zfp219 (UniProt Q6IQX8)
Cacybp = Cacybp (UniProt Q9CXW3)
Nusap1 = Nusap1 (UniProt Q9ERH4)
Mphosph10 = Mphosph10 (UniProt Q810V0)
Hcfc1 = Hcfc1 (UniProt Q61191)
Ppie = Ppie (UniProt Q9QZH3)
Zwilch = Zwilch (UniProt Q8R060)
Chain of Zwilch (Q8R060 whole entry): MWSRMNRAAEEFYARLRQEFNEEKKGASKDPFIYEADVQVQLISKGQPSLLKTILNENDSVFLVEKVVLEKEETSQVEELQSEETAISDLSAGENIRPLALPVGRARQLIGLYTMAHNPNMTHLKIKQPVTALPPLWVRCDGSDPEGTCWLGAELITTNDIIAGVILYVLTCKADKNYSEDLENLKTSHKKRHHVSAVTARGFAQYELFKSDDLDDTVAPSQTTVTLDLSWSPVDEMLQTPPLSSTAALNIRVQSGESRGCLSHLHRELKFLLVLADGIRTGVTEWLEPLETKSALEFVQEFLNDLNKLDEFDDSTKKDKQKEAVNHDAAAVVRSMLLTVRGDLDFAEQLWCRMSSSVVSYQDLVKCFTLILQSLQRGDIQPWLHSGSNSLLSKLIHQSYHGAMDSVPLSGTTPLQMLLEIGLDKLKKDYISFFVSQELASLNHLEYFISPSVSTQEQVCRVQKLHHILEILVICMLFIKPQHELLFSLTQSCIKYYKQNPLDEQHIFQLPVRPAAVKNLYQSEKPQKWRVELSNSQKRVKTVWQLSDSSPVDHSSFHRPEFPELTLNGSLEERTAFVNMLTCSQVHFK

Acot8 = Acot8 (UniProt P58137)
Chain of Acot8 (P58137 whole entry): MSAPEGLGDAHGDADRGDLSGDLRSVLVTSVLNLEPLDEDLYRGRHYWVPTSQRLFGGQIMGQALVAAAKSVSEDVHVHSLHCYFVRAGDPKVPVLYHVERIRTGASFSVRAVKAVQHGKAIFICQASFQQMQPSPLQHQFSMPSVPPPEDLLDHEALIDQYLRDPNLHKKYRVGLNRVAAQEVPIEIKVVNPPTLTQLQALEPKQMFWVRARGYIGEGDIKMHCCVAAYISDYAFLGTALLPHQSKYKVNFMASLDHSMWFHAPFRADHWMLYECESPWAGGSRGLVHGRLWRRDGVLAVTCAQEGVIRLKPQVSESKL

Orc5 = Orc5 (UniProt Q9WUV0)
Chain of Orc5 (Q9WUV0 whole entry): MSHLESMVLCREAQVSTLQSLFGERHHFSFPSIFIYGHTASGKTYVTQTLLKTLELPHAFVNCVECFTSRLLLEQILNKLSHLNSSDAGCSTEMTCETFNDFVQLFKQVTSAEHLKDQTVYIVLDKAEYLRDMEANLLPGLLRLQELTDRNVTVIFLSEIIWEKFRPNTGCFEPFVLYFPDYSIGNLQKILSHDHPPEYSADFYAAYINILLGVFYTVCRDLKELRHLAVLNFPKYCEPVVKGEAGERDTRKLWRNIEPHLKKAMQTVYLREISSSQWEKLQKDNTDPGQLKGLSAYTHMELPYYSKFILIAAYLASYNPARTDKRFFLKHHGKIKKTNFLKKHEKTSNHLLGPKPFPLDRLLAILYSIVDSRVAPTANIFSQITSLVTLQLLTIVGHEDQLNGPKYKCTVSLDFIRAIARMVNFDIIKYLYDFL

Ccar1 = Ccar1 (UniProt Q8CH18)
Prrc2c = Prrc2c (UniProt Q3TLH4)

Chain of Pusl1 (A2ADA5 whole entry): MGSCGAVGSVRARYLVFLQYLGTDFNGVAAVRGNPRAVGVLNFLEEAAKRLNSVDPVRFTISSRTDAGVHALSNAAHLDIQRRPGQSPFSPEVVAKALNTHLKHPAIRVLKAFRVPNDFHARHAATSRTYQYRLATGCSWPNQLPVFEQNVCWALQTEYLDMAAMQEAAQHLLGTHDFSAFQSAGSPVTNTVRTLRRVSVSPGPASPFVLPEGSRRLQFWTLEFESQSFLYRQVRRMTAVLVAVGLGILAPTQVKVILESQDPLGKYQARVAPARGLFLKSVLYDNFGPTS
Chain of Nusap1 (Q9ERH4 whole entry): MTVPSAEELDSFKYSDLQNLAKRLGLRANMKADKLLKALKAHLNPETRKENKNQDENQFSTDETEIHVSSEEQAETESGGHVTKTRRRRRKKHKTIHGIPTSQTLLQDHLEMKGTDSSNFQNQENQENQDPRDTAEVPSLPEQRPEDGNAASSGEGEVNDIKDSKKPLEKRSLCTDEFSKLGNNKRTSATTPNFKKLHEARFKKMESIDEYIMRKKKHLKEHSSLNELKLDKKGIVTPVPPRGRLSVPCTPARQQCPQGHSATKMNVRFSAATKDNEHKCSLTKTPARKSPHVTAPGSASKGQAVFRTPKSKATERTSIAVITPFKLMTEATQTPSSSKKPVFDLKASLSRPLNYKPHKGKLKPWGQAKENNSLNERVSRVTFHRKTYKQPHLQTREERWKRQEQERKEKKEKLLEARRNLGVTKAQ
Chain of Ppie (Q9QZH3 whole entry): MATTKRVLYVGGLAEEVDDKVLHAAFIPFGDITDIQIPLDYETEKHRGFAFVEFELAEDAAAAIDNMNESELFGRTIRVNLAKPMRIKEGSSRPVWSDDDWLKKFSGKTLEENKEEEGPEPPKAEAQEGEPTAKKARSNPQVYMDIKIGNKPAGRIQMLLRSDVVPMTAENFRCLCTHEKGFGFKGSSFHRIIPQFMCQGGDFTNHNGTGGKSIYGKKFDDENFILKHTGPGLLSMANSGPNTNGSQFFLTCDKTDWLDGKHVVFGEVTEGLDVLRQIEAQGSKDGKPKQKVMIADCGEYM
Chain of Mphosph10 (Q810V0 whole entry): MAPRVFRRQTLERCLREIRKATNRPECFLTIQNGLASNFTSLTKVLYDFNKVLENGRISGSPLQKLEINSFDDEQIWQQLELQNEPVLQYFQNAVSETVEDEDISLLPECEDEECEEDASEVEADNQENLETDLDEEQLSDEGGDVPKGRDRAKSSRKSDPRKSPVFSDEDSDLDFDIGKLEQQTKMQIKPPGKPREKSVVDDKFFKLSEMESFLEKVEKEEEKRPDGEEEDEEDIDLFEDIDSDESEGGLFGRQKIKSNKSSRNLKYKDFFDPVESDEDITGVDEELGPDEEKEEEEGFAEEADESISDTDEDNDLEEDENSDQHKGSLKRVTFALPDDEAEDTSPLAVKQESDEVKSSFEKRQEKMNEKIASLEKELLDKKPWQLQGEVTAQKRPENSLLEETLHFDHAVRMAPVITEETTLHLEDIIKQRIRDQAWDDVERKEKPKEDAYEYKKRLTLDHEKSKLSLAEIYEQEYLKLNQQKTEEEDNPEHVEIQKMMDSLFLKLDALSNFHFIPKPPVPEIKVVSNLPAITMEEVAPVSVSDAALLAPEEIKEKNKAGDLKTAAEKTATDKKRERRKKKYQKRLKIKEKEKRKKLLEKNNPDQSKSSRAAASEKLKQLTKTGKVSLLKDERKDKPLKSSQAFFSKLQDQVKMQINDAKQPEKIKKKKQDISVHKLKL
Chain of Ppa1 (Q9D819 2-289 limits assumed): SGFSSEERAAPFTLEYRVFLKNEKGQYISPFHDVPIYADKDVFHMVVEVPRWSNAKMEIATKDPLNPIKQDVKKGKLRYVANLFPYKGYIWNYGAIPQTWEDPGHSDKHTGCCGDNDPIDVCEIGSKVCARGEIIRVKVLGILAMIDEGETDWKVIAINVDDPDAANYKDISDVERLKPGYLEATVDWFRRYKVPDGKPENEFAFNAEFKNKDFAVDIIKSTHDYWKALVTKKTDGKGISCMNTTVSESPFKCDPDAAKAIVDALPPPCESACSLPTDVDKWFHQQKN
Chain of Eif5 (P59325 whole entry): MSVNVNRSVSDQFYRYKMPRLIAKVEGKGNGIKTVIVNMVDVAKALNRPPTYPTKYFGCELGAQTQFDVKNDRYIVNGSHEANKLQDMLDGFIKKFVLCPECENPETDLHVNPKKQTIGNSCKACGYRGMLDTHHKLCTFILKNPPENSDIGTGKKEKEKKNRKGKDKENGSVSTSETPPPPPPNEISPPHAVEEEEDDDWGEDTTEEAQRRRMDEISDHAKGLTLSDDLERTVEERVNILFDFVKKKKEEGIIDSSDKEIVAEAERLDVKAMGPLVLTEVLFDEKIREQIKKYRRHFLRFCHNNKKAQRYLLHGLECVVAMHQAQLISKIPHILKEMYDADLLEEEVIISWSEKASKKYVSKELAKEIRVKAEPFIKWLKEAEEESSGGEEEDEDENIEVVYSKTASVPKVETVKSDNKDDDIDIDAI
Chain of Zfp219 (Q6IQX8 whole entry): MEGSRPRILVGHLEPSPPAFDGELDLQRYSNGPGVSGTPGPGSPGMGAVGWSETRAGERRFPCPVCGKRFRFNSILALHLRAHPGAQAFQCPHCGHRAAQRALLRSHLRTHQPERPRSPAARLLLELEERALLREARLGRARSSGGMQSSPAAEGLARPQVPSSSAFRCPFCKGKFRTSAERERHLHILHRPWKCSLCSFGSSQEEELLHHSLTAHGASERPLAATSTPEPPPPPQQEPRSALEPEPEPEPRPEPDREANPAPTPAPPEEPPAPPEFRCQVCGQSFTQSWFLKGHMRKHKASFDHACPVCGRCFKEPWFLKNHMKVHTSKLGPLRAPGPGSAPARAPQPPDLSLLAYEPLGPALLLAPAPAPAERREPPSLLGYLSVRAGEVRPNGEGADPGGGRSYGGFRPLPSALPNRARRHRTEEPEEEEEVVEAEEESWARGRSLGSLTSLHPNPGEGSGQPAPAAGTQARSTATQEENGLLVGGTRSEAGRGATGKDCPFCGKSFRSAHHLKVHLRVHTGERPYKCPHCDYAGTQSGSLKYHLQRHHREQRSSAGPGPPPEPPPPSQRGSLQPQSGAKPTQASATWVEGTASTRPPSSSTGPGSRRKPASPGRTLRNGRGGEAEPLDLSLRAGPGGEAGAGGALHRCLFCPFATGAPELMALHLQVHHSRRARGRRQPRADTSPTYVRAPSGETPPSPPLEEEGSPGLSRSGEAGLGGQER
Chain of Cacybp (Q9CXW3 2-229 limits assumed): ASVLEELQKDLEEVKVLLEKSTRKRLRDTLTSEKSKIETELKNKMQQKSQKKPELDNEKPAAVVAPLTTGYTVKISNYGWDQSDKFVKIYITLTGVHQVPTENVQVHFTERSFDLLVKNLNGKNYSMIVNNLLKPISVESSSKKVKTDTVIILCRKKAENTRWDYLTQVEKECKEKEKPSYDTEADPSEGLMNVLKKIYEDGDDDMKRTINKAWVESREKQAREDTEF

Tox (from UniProt Q66JW3 1-526)
Abundance (Pusl1): 1.19e-05
MiST Score (Pusl1): 0.925
Reproducibility (Pusl1): 0.776
Specificity (Pusl1): 1
Abundance (Tox4; Tox3): 1.98e-05
MiST Score (Tox4; Tox3): 0.936
Reproducibility (Tox4; Tox3): 0.812
Specificity (Tox4; Tox3): 1
Abundance (Eif5): 1.08e-05
MiST Score (Eif5): 0.985
Reproducibility (Eif5): 0.971
Specificity (Eif5): 1
Abundance (Mrpl46): 3.3e-05
MiST Score (Mrpl46): 0.982
Reproducibility (Mrpl46): 0.962
Specificity (Mrpl46): 1
Abundance (Ppa1): 8.43e-06
MiST Score (Ppa1): 0.994
Reproducibility (Ppa1): 0.999
Specificity (Ppa1): 1
Abundance (Dync1li1): 5.91e-06
MiST Score (Dync1li1): 0.976
Reproducibility (Dync1li1): 0.941
Specificity (Dync1li1): 1
Abundance (Zfp219): 8.26e-06
MiST Score (Zfp219): 0.902
Reproducibility (Zfp219): 0.836
Specificity (Zfp219): 0.94
Abundance (Cacybp): 3.38e-05
MiST Score (Cacybp): 0.944
Reproducibility (Cacybp): 0.837
Specificity (Cacybp): 1
Abundance (Nusap1): 2.24e-05
MiST Score (Nusap1): 0.899
Reproducibility (Nusap1): 0.966
Specificity (Nusap1): 0.877
Abundance (Mphosph10): 1.33e-05
MiST Score (Mphosph10): 0.97
Reproducibility (Mphosph10): 0.924
Specificity (Mphosph10): 1
Abundance (Hcfc1): 4.9e-07
MiST Score (Hcfc1): 0.964
Reproducibility (Hcfc1): 0.901
Specificity (Hcfc1): 1
Abundance (Ppie): 1.28e-05
MiST Score (Ppie): 0.979
Reproducibility (Ppie): 0.953
Specificity (Ppie): 1
Abundance (Zwilch): 6.62e-05
MiST Score (Zwilch): 0.895
Reproducibility (Zwilch): 0.729
Specificity (Zwilch): 0.978
Abundance (Acot8): 2.29e-05
MiST Score (Acot8): 0.989
Reproducibility (Acot8): 0.983
Specificity (Acot8): 1
Abundance (Orc5): 2.13e-06
MiST Score (Orc5): 0.985
Reproducibility (Orc5): 0.971
Specificity (Orc5): 1
Abundance (Ccar1): 1.49e-06
MiST Score (Ccar1): 0.962
Reproducibility (Ccar1): 0.897
Specificity (Ccar1): 1
Abundance (Prrc2c): 7.52e-07
MiST Score (Prrc2c): 0.905
Reproducibility (Prrc2c): 0.71
Specificity (Prrc2c): 1

From patent US20210071139A1
